# Measured values as given in patent US20260008815A1, “CYCLIC PEPTIDE OR SALT THEREOF, AND USES THEREOF” (FUJIFILM Corporation, priority 2023, published 2026).
# Bridge positions count the residues as written; N and C are the ends. Ends that are not written are not given here. COCH2 = acetyl group that carries the bridge
# Target: T1, Recombinant Human FGFR2 alpha (IIIc) Fc Chimera Protein, CF (R&D systems, 712-FR-050) (human, UniProt P21802 22-377)
# T1 construct: bought; not shown: Fc part of the chimera
# T1 sequence (P21802 22-377, change not shown): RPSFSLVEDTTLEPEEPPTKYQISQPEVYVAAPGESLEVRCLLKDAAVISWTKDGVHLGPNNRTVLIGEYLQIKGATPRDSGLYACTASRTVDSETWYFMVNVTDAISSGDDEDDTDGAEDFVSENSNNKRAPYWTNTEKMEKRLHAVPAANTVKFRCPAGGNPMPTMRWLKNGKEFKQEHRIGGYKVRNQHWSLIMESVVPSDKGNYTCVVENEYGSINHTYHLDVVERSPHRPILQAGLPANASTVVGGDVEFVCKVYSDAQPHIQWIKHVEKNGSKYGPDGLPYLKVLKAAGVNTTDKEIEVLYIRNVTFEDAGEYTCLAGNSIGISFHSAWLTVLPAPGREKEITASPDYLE
# Experiment: ELISA on plate-bound FGFR2-Fc
# Outline: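 Peptide binding scored by category from dose-response of background-corrected luminescence (FGFR-coated minus uncoated wells). Detection via anti-Myc antibody (2 h, room temperature) after 3 h peptide incubation on wells coated with 5 ng FGFR2 alpha (IIIc)-Fc.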
row,Binder,"ELISA luminescence signal at 10 nmol/L peptide, relative to SEQ ID NO: 47 (=1)"
1,YCEENYLDPEQYYYFIYFK(COCH2)Y (thioether 2-19 (inferred)) [cyclic peptide SEQ ID NO: 262],≥ 0.7 ratio
2,YCEENYLDPEQYQYFGYFK(COCH2)Y (thioether 2-19 (inferred)) [cyclic peptide SEQ ID NO: 277],0.1 to 0.5 ratio
3,YCEENYLDPEQYQYFRYFK(COCH2)Y (thioether 2-19 (inferred)) [cyclic peptide SEQ ID NO: 289],≥ 0.7 ratio
4,YCEENYLDPEQYQYFTYFK(COCH2)Y (thioether 2-19 (inferred)) [cyclic peptide SEQ ID NO: 286],≥ 0.7 ratio
5,YCEENYLDPEQYSYFIYFK(COCH2)Y (thioether 2-19 (inferred)) [cyclic peptide SEQ ID NO: 265],≥ 0.7 ratio
6,YCEENYLDPEQYQYFWYFK(COCH2)Y (thioether 2-19 (inferred)) [cyclic peptide SEQ ID NO: 282],≥ 0.7 ratio
7,YCEENYLDPEQYQHFIYFK(COCH2)Y (thioether 2-19 (inferred)) [cyclic peptide SEQ ID NO: 274],0.1 to 0.5 ratio
8,YCEENYLDPEQYQYFLYFK(COCH2)Y (thioether 2-19 (inferred)) [cyclic peptide SEQ ID NO: 278],≥ 0.7 ratio
9,YCEENYLDPEQYQYFNYFK(COCH2)Y (thioether 2-19 (inferred)) [cyclic peptide SEQ ID NO: 283],≥ 0.7 ratio
10,YCEENYLDPEQYQYFSYFK(COCH2)Y (thioether 2-19 (inferred)) [cyclic peptide SEQ ID NO: 285],≥ 0.7 ratio
11,YCEENYLDPEQYQYFIGFK(COCH2)Y (thioether 2-19 (inferred)) [cyclic peptide SEQ ID NO: 291],0.5 to 0.7 ratio
12,YCEENYLDPEQYQYFVYFK(COCH2)Y (thioether 2-19 (inferred)) [cyclic peptide SEQ ID NO: 279],≥ 0.7 ratio
13,YCEENYLDPEQYRYFIYFK(COCH2)Y (thioether 2-19 (inferred)) [cyclic peptide SEQ ID NO: 269],≥ 0.7 ratio
14,YCEENYLDPEQYQYFIPFK(COCH2)Y (thioether 2-19 (inferred)) [cyclic peptide SEQ ID NO: 292],0.1 to 0.5 ratio

# More lines, now with the values ahead:
row,"ELISA luminescence signal at 10 nmol/L peptide, relative to SEQ ID NO: 47 (=1)",Binder
1,0.5 to 0.7 ratio,YCEENYLDPEQYFYFIYFK(COCH2)Y (thioether 2-19 (inferred)) [cyclic peptide SEQ ID NO: 261]
2,≥ 0.7 ratio,YCEENYLDPEQYQYFILFK(COCH2)Y (thioether 2-19 (inferred)) [cyclic peptide SEQ ID NO: 293]
3,≥ 0.7 ratio,YCEENYLDPEQYQYFFYFK(COCH2)Y (thioether 2-19 (inferred)) [cyclic peptide SEQ ID NO: 280]
4,≥ 0.7 ratio,YCEENYLDPEQYQYFDYFK(COCH2)Y (thioether 2-19 (inferred)) [cyclic peptide SEQ ID NO: 287]
5,≥ 0.7 ratio,YCEENYLDPEQYQYFHYFK(COCH2)Y (thioether 2-19 (inferred)) [cyclic peptide SEQ ID NO: 290]
6,≥ 0.7 ratio,YCEENYLDPEQYQYFYYFK(COCH2)Y (thioether 2-19 (inferred)) [cyclic peptide SEQ ID NO: 281]
7,0.1 to 0.5 ratio,YCEENYLDPEQYQNFIYFK(COCH2)Y (thioether 2-19 (inferred)) [cyclic peptide SEQ ID NO: 273]
8,0.1 to 0.5 ratio,YCEENYLDPEQYQIFIYFK(COCH2)Y (thioether 2-19 (inferred)) [cyclic peptide SEQ ID NO: 271]
9,≥ 0.7 ratio,YCEENYLDPEQYQYLIYFK(COCH2)Y (thioether 2-19 (inferred)) [cyclic peptide SEQ ID NO: 275]
10,≥ 0.7 ratio,YCEENYLDPEQYWYFIYFK(COCH2)Y (thioether 2-19 (inferred)) [cyclic peptide SEQ ID NO: 263]
11,≥ 0.7 ratio,YCEENYLDPEQYDYFIYFK(COCH2)Y (thioether 2-19 (inferred)) [cyclic peptide SEQ ID NO: 267]
12,≥ 0.7 ratio,YCEENYLDPEQYTYFIYFK(COCH2)Y (thioether 2-19 (inferred)) [cyclic peptide SEQ ID NO: 266]
13,≥ 0.7 ratio,YCEENYLDPEQYHYFIYFK(COCH2)Y (thioether 2-19 (inferred)) [cyclic peptide SEQ ID NO: 270]
14,≥ 0.7 ratio,YCEENYLDPEQYQYFQYFK(COCH2)Y (thioether 2-19 (inferred)) [cyclic peptide SEQ ID NO: 284]
15,≥ 0.7 ratio,YCEENYLDPEQYNYFIYFK(COCH2)Y (thioether 2-19 (inferred)) [cyclic peptide SEQ ID NO: 264]
16,≥ 0.7 ratio,YCEENYLDPEQYEYFIYFK(COCH2)Y (thioether 2-19 (inferred)) [cyclic peptide SEQ ID NO: 268]
17,≥ 0.7 ratio,YCEENYLDPEQYQYFEYFK(COCH2)Y (thioether 2-19 (inferred)) [cyclic peptide SEQ ID NO: 288]
18,0.5 to 0.7 ratio,YCEENYLDPEQYQYYIYFK(COCH2)Y (thioether 2-19 (inferred)) [cyclic peptide SEQ ID NO: 276]
19,≥ 0.7 ratio,YCEENYLDPEQYQFFIYFK(COCH2)Y (thioether 2-19 (inferred)) [cyclic peptide SEQ ID NO: 272]
